Assay results published in the supplement of paper PMC6757056.
± gives the standard deviation of the averaged measurements.

B1: library; a variant is named by its letters at N, in order (parent)
chain: GCUGUCACCGGUGUAUUACCCUAGUGGUCGACCGGUCUGAUGAGUCUNNNNNNAGACGAAACAGC

Experiments:
[1] = variants of: B1; assay: FACS-Seq fitted mean relative fluorescence mCherry/BFP without ligand (log10 relative fluorescence); ligand: hypoxanthine (xanthine aptamer); higher = higher reporter protein expression; settings: HEK293T, ligand present: no
Summary of the method: (§1)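 Fluorescence figures are normalized fitted normal means of sequenced bin counts. Enriched, lentivirally transduced HEK293T libraries with a ribozyme-switch mCherry reporter and EF1α-BFP were held 48 h with or without ligand, then sorted into 6 mCherry/BFP bins. PCR-amplified, barcoded genomic DNA from each bin was sequenced on MiSeq. Means of log10(mCherry/BFP) were scaled to five spiked-in control ribozymes.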

[2] = variants of: B1; assay: normalized RNA/DNA level with ligand (relative to sTRSVctl = 100) (log10 (% of sTRSVctl)); ligand: hypoxanthine (xanthine aptamer); higher = less ribozyme self-cleavage, higher mRNA level; settings: ligand concentration (+) RNA-Seq: 5 mM, HEK293T, reporter: mCherry (pCS4076), ligand present: yes
Summary of the method: (§2)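 HEK293T cells received ligand, where used, 1 h before being transfected with 4 µg per 6-well well of library plasmids encoding reporter-linked ribozyme switches. After 72 h, RNA was extracted with EDTA and sequenced. RNA level was derived from RNA reads per DNA read, normalized to a spiked-in non-cleaving sequence or the top sequences, then scaled and log-transformed. Values were ×100 then log10, the top set was 25 sequences, and the minimum was 100 DNA reads.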

[3] = variants of: B1; assay: normalized RNA/DNA level without ligand (relative to sTRSVctl = 100) (log10 (% of sTRSVctl)); ligand: hypoxanthine (xanthine aptamer); higher = less ribozyme self-cleavage, higher mRNA level; settings: HEK293T, reporter: mCherry (pCS4076), ligand present: no
Summary of the method: as §2

[4] = variants of: B1; assay: FACS-Seq fitted mean relative fluorescence mCherry/BFP with ligand (log10 relative fluorescence); ligand: hypoxanthine (xanthine aptamer); ligand concentration (+) FACS-Seq: 5 mM; higher = higher reporter protein expression; settings: HEK293T, ligand present: yes
Summary of the method: as §1

| Variant | FACS-Seq fitted mean (log10) [1] | normalized RNA/DNA level with ligand (log10) [2] | normalized RNA/DNA level without ligand (log10) [3] | FACS-Seq fitted mean (log10) [4] |
| --- | --- | --- | --- | --- |
| AGUAAA | 0.625 ± 0.22 | 1.891 ± 0.011 | 1.73 ± 0.063 | 0.59 ± 0.032 |
| UGUUGU | 0.254 ± 0.025 | 1.913 ± 0.0038 | 1.738 ± 0.011 | 0.57 ± 0.019 |
| CGUUGG | 0.31411 ± 0.00021 | 1.966 ± 0.0055 | 1.413 ± 0.0094 | 0.58 ± 0.022 |
| GUACAA | -0.152 ± 0.025 | 1.91 ± 0.035 | 1.76 ± 0.064 | 0.27 ± 0.051 |
| CGUUAA | 0.0819 ± 0.044 | 1.89 ± 0.019 | 1.62 ± 0.049 | 0.118 ± 0.02 |
| GGUCCA | 0.354 ± 0.029 | 1.96 ± 0.023 | 1.94 ± 0.056 | 0.465 ± 0.041 |
| CGGUUC | 0.133 ± 0.2 | 1.964 ± 0.01 | 1.79 ± 0.066 | 0.211 ± 0.024 |
| AGUCUG | 0.186 ± 0.024 | 1.9 ± 0.066 | 1.54 ± 0.029 | 0.414 ± 0.053 |
| UGUGUG | 0.266 ± 0.078 | 1.93 ± 0.058 | 1.676 ± 0.0071 | 0.333 ± 0.086 |
| UGUGCG | -0.404 ± 0.074 | 1.933 ± 0.015 | 1.684 ± 0.014 | 0.178 ± 0.0062 |
| AUAACA | 0.00278 ± 0.0073 | 1.9 ± 0.041 | 1.83 ± 0.031 | 0.0853 ± 0.19 |
| AGUUCA | 0.179 ± 0.0096 | 1.91 ± 0.034 | 1.802 ± 0.0084 | 0.4165 ± 0.0023 |
| CGGUGU | 0.576 ± 0.076 | 1.965 ± 0.011 | 1.85 ± 0.031 | 0.586 ± 0.029 |
| UGGUCG | -0.282 ± 0.14 | 1.924 ± 0.012 | 1.79 ± 0.06 | -0.0942 ± 0.036 |
| UGGUCA | 0.761 ± 0.06 | 1.97 ± 0.043 | 1.84 ± 0.025 | 0.607 ± 0.11 |
| CGUCAA | 0.13 ± 0.025 | 1.96 ± 0.023 | 1.807 ± 0.016 | 0.3 ± 0.077 |
| GGUCAC | 0.222 ± 0.021 | 1.91 ± 0.05 | 1.825 ± 0.0063 | 0.633 ± 0.0098 |
| GGUGCG | 0.452 ± 0.027 | 1.91 ± 0.056 | 1.58 ± 0.094 | 0.656 ± 0.018 |
| GGUGCC | 0.798 ± 0.026 | 2.009 ± 0.0084 | 1.97 ± 0.04 | 0.76 ± 0.035 |
| GGUGCU | 0.444 ± 0.03 | 2.022 ± 0.015 | 1.977 ± 0.015 | 0.475 ± 0.041 |
| GGGUCC | 0.29 ± 0.12 | 2 ± 0.023 | 1.991 ± 0.019 | 0.3574 ± 0.0012 |
| AGUUGG | -0.154 ± 0.12 | 1.8 ± 0.037 | 1.338 ± 0.0021 | 0.403 ± 0.075 |
| AGUUGC | 0.226 ± 0.043 | 1.91 ± 0.048 | 1.72 ± 0.022 | 0.382 ± 0.02 |
| AUAAUU | 0.751 ± 0.0089 | 1.92 ± 0.046 | 1.83 ± 0.061 | 0.619 ± 0.013 |

| Variant | FACS-Seq fitted mean (log10) [1] | normalized RNA/DNA level with ligand (log10) [2] | normalized RNA/DNA level without ligand (log10) [3] | FACS-Seq fitted mean (log10) [4] |
| --- | --- | --- | --- | --- |
| AUAAUA | -0.24 ± 0.021 | 1.886 ± 0.012 | 1.82 ± 0.0094 | -0.134 ± 0.044 |
| AUAAUG | 0.211 ± 0.039 | 1.838 ± 0.013 | 1.51 ± 0.064 | 0.551 ± 0.036 |
| CGUGAA | -0.0193 ± 0.0065 | 1.87 ± 0.051 | 1.6 ± 0.029 | 0.148 ± 0.033 |
| AUAAAU | 0.431 ± 0.027 | 1.9 ± 0.035 | 1.7593 ± 0.00014 | 0.576 ± 0.017 |
| AUAAAC | 0.413 ± 0.047 | 1.893 ± 0.0082 | 1.81 ± 0.023 | 0.517 ± 0.15 |
| AUAAAG | 0.43 ± 0.03 | 1.87 ± 0.024 | 1.51 ± 0.053 | 0.678 ± 0.081 |
| CGUACA | 0.575 ± 0.038 | 1.92 ± 0.061 | 1.72 ± 0.037 | 0.49 ± 0.085 |
| CGUACC | 0.313 ± 0.054 | 1.98 ± 0.065 | 1.89 ± 0.021 | 0.536 ± 0.047 |
| GGUAAG | 0.176 ± 0.027 | 1.744 ± 0.013 | 1.25 ± 0.054 | 0.6778 ± 0.0029 |
| GGUAAC | 0.447 ± 0.063 | 1.96 ± 0.067 | 1.82 ± 0.031 | 0.455 ± 0.018 |
| GGUAAU | 0.123 ± 0.061 | 1.918 ± 0.019 | 1.79 ± 0.035 | 0.314 ± 0.036 |
| GGUAAA | 0.652 ± 0.01 | 1.9 ± 0.022 | 1.69 ± 0.007 | 0.581 ± 0.029 |
| CGUUUC | 0.944 ± 0.041 | 1.95 ± 0.058 | 1.908 ± 0.0084 | 0.812 ± 0.15 |
| AGUGGC | -0.495 ± 0.045 | 1.98 ± 0.033 | 1.83 ± 0.023 | 0.0818 ± 0.018 |
| AGUGGA | 0.318 ± 0.0063 | 1.9085 ± 0.001 | 1.62 ± 0.047 | 0.468 ± 0.084 |
| GGUUAG | 0.17 ± 0.041 | 1.726 ± 0.017 | 1.383 ± 0.0095 | 0.458 ± 0.03 |
| GGUUAC | 0.247 ± 0.029 | 1.96 ± 0.064 | 1.8 ± 0.066 | 0.276 ± 0.0034 |
| AGUUUA | 0.474 ± 0.011 | 1.93 ± 0.025 | 1.79 ± 0.027 | 0.651 ± 0.098 |
| AGGUCG | 0.151 ± 0.023 | 1.861 ± 0.0041 | 1.53 ± 0.092 | 0.463 ± 0.049 |
| AGGUCA | 0.881 ± 0.045 | 1.94 ± 0.071 | 1.68 ± 0.052 | 0.729 ± 0.035 |
| UGUGAC | 0.481 ± 0.0063 | 1.94 ± 0.022 | 1.839 ± 0.0072 | 0.42 ± 0.077 |
| CGUAAA | 0.554 ± 0.028 | 1.865 ± 0.0031 | 1.65 ± 0.034 | 0.4915 ± 0.0049 |
| GGUUUA | 0.149 ± 0.053 | 1.96 ± 0.024 | 1.87 ± 0.034 | 0.3294 ± 0.00074 |
| GGUUUU | 0.313 ± 0.029 | 1.93 ± 0.053 | 1.894 ± 0.0067 | 0.378 ± 0.028 |

| Variant | FACS-Seq fitted mean (log10) [1] | normalized RNA/DNA level with ligand (log10) [2] | normalized RNA/DNA level without ligand (log10) [3] | FACS-Seq fitted mean (log10) [4] |
| --- | --- | --- | --- | --- |
| GGUUUG | 0.0895 ± 0.042 | 1.9 ± 0.019 | 1.614 ± 0.0086 | 0.485 ± 0.021 |
| UGUGGA | -0.645 ± 0.11 | 1.91 ± 0.06 | 1.52 ± 0.12 | -0.186 ± 0.061 |
| AGGUAU | 0.648 ± 0.15 | 1.871 ± 0.013 | 1.69 ± 0.03 | 0.665 ± 0.12 |
| AGGUAG | 0.161 ± 0.019 | 1.73 ± 0.019 | 1.3 ± 0.047 | 0.537 ± 0.019 |
| UGUAUG | 0.361 ± 0.043 | 1.909 ± 0.007 | 1.777 ± 0.0029 | 0.435 ± 0.059 |
| UUAAGG | 0.505 ± 0.031 | 1.925 ± 0.015 | 1.77 ± 0.058 | 0.538 ± 0.077 |
| UUAAGA | 0.6835 ± 0.0045 | 1.884 ± 0.0019 | 1.68 ± 0.059 | 0.618 ± 0.02 |
| GUAAAC | 0.572 ± 0.053 | 1.946 ± 0.0036 | 1.74 ± 0.028 | 0.739 ± 0.055 |
| GUAAAA | 0.614 ± 0.066 | 1.92 ± 0.06 | 1.815 ± 0.0075 | 0.661 ± 0.033 |
| GUAAAU | 0.503 ± 0.07 | 1.88 ± 0.053 | 1.778 ± 0.011 | 0.467 ± 0.11 |
| GUAAAG | -0.0437 ± 0.028 | 1.82 ± 0.023 | 1.49 ± 0.045 | -0.15 ± 0.059 |
| AGUCCU | 0.767 ± 0.076 | 1.92 ± 0.085 | 1.895 ± 0.015 | 0.719 ± 0.034 |
| UGUAGA | 0.133 ± 0.057 | 1.93 ± 0.043 | 1.55 ± 0.049 | 0.19 ± 0.011 |
| CGGUAU | 0.0356 ± 0.0062 | 1.79 ± 0.05 | 1.41 ± 0.016 | 0.468 ± 0.05 |
| CUAAAC | 0.4073 ± 0.0033 | 1.89 ± 0.025 | 1.827 ± 0.015 | 0.415 ± 0.1 |
| UUAAUA | 0.528 ± 0.021 | 1.9466 ± 0.0017 | 1.79 ± 0.029 | 0.658 ± 0.014 |
| UUAAAA | 0.501 ± 0.012 | 1.966 ± 0.016 | 1.795 ± 0.0061 | 0.388 ± 0.15 |
| UUAAAU | 0.322 ± 0.05 | 1.959 ± 0.016 | 1.83 ± 0.024 | 0.322 ± 0.013 |
| UUAAAG | 0.207 ± 0.12 | 1.886 ± 0.0075 | 1.6908 ± 0.00025 | 0.201 ± 0.0094 |
| AGUGAU | 0.509 ± 0.14 | 1.91 ± 0.065 | 1.77 ± 0.047 | 0.534 ± 0.019 |
| GGUACG | 0.173 ± 0.027 | 1.88 ± 0.031 | 1.49 ± 0.016 | 0.506 ± 0.019 |
| GGUACU | 0.2 ± 0.042 | 1.97 ± 0.083 | 1.93 ± 0.047 | 0.258 ± 0.029 |
| CUAAGC | 0.0548 ± 0.024 | 1.94 ± 0.048 | 1.851 ± 0.0075 | 0.039 ± 0.019 |
| CUAAGU | 0.447 ± 0.0085 | 1.93 ± 0.023 | 1.86 ± 0.031 | 0.262 ± 0.12 |
